Measured values from the supplement of paper PMC12042874.
± gives the uncertainty stated by the source.

Assay: amyloid nucleation score (Sup35N fusion, yeast selection) (log enrichment); library NNK3; higher = more nucleation; inactive = no reads after selection
In short: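 In psi-negative yeast, Sup35N fusions carrying peptides of 20 random codons were induced with 100 μM copper sulfate for 24 hours. The cells then grew 7 days at 30°C on medium lacking adenine and uracil, and plasmid inserts from input and output were Illumina-sequenced, excluding sequences with under 100 input reads. Nucleation score is the DiMSum log enrichment of output over input reads, centred on the mode score of non-aggregating sequences.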

Amyloid nucleation score, 0.755 ± 0.18:
NWVLARIWW

Amyloid nucleation score, 0.264 ± 0.85:
NNCEVNLCSLELPWKTKLMM

Amyloid nucleation score, 2.47 ± 0.057:
NMRVCCIGNSFSMGYLICWY

Amyloid nucleation score, -0.18 ± 0.61:
NWNYLISMRGFTEYGESFWW

Amyloid nucleation score, inactive:
NGVLASWWC
NGVLSSA
NGWLLTRLSMHLTFGIYMLV
NGYMSRVHLCPKCFRLHGFR
NGYPHLIQHYLVNAG
NHDIDALTQTQPTDNSYL
NHFAAMLSCFSSRVVVTYQA
NHFFALSLVII
NHIYGMSAFQSGHCGPCRSN
NHNPVCGVDNRMKVVRLYYV
NHQIVRDDRCYKLLIQAVRM
NHSVNAARNLQHQSYCKKSV
NIAIGLYRFKMLDGKRSCML
NIDVYDLMRLSVFDNKMATG
NINYSPFISAQVGLIMAPLN
NIRIDMMWSLSCHKLG
NISSVVLGGGLRVGARRI
NITVHVNRMKFCCMYAESHD
NIVSFVGDVFHSLLVG
NIWRMYEIRSVSGKKLRVDI
NKLFEDSQAETS
NKVVAKHGFGVRSFKIWGLD
NLDRLYI
NLEYDPIRHRNVLNPSWFCS
NLFGC
NLGLRGPLLAMKCMIACYVQ
NLGSCVRVGQWISPRRA
NLIVKSNYGAGNDMRCGDYT
NLMEHSIGLYAYYYSLNDCS
NLPLKFDTFTFLCVRLNSLS
NLSSVSIVALLQRVPIYKYL
NLSWKGNAQDCLMGSVL
NLTRGYISRKRMSCPQ
NLVLCN
NLVNFYYLVRAFDCELLFRG
NLWVADWIEHHYPSRSSIFA
NLYFGHKSTS
NMLKAASKTVKG
NMQVHFIMCARSRLQGNHVS
NNGRYLMGRRKESDLLLGQW
NNRFTGILPVWTMHE
NPGRYRGGRTAHIFPERDIR
NPLDSLYLIDIFAHSSASEL
NPRHGYLPTIIGLDHSIHDL
NPSQSRSASWQHSYHRISGL
NQVRVSKSVNRAIDASPEWD
NQYQSLSRRCSAGALGALVV
NRAVQRFCCDFNAPHIPFR
NRFINASNS
NRFQLVSRYAWHSWVK
NRIVQAFPSIGGFATNVCLC
NRMLNYIFDTTS
NRNFYGL
NRPLNIAAVLY
NRSRNMESVRDSLLSVVNRE
NRTRCGDYILGCQSSFDTCH
NRVSGALKPLVVS
NSFFKGGWMHPG
NSGLSIVWDWLDCFSGMKYS
NSMYYPYQVVRWLVDWHVIR
NSNYSVG
NSRLFAYKLKLVV
NSRNLR
NSRSKNWGLVFPSNRGLVS
NSVRLFKNFQWWAFSRHSRL
NSWRHKMMQMKSYHSNVCIW
NSYMHGQDF
NTCMQPCLSRVCFELDVGCR
NTDFYVVVDRIMFRLLHGFK
NTDPTQVFQASN
NTFCGVEISSYIGAARKCLK
NTGCSDNFESFCLKATVHWV
NTHMRAIMNPLDVSVPRPHK
NTNVVSDYIHHAF
NTSISGSSM
NTVNWSFFVMVLSFSSRETV
NTYDAVISIACVSHQSICST
NVAAISGILYSLLTFFLSGG
NVHMMC
NVINSMGLSKQIIPSQVQSS
NVLFRMTRHAYSKLTWLFKR
NVNVNAFKMSLELRAR
NVRGNNLSRM
NVRWLFLAVSCQL
NVYLKLTA
NVYMHAMCRWDVQGTAR
NWLDWYYPYLKMVIATGFND
NWSSRFMTT
NWVQSSMNQ
NWWFPTFVRVFIYEVGLVLK
NWYLALSGLVLSPYRGIRSG
NYAYTVMGGTIYRLWGRVMR
NYCDIYQGSNIF
NYKLQKHAWMNYSAHQECLF
NYLNTVPVPGGPMVCMQHRI
NYLSASVCRRRDFI
NYNYNRSAHSGCPPGLEGVM
NYRAPMCCELFNKWVF
NYRRGVRKPSFCL
NYSRFGNKKFYHP
NYVLPIVCL
NYVVRGRSQNVRNSEDNWGK
PAMVCNPTQATRGKSRMVPL
PCHPRGKRENTMRAWGRSCE
PCPLRTTVW
PCRICINCCRRCIILLLF
PCSGDSLLVSNTKNRSL
PDSKWVFRNAALMTETCIGR
PEFMTVLDVTMSYWWESCLG
PERTPFGSNYIYFVKRTRLL
PFHLRVMKIRLRLPVVHLKG
PFNYVVRWESKLQSHYFGLY
PFRNMLGMNPNSQTLRVMVR
PFSRYPVGCLGVSPYRVISS
PFSWCFICKSL
PGIQYPSCRKLVIIYMSCL
PGRLSYLPHMFKYLLLITYT
PGRTSYMKVPYCKWSEWPAK
PGRYFMHLLELV
PHTSMDALEMSD
PHTWGGR
PIFFMIVYAVATYCKEGSHS

Amyloid nucleation score, -0.438 ± 0.88:
NLQERAL

Amyloid nucleation score, 0.845 ± 0.14:
NQNIMWIAKYIF

Amyloid nucleation score, 1.49 ± 0.11:
NMIIVDFDNLLYNMNYHLAG

Amyloid nucleation score, 0.509 ± 0.25:
NSTFRFTVTRFCIAPSEYIG

Amyloid nucleation score, -0.104 ± 0.75:
NSLVGLVCKTGSSFTRNKVV

Amyloid nucleation score, 2.18 ± 0.067:
NKVYLGLTKLHSSDPSEMAC

Amyloid nucleation score, 1.45 ± 0.14:
NHCNTCSWFLQTS

Amyloid nucleation score, 0.315 ± 0.3:
NRATVYMTQAKGCCSALFQV

Amyloid nucleation score, 0.306 ± 0.22:
NRRVCYSLISMGIVLVCRYG

Amyloid nucleation score, -0.381 ± 0.63:
NSCYTASCS

Amyloid nucleation score, 1.83 ± 0.085:
NYMTVRNGLIISIAPRRLRD

Amyloid nucleation score, 1.1 ± 0.11:
NLWYAFMSFVVNDGHIRLGR

Amyloid nucleation score, 0.795 ± 0.27:
NIRICWG

Amyloid nucleation score, -0.404 ± 0.8:
PATVNRSWNFGIRFNGARNN

Amyloid nucleation score, 0.732 ± 0.19:
NVIRISICRSMRMGLKGCIF

Amyloid nucleation score, -0.357 ± 1.4:
NIIDKW

Amyloid nucleation score, 0.078 ± 0.37:
NLFFSVSMSAEFEW

Amyloid nucleation score, 1.19 ± 0.15:
NMCDNMQQIMVSGYVVVWVY

Amyloid nucleation score, -0.005 ± 0.88:
NYRPRKKVFGLR

Amyloid nucleation score, 0.68 ± 0.23:
NLWLKSFWSLRLFLRDL

Amyloid nucleation score, 0.829 ± 0.24:
NSSCSCTCLLSGHRHTP

Amyloid nucleation score, -0.693 ± 0.8:
PGDFISDEAMDSNVYFRLQS

Amyloid nucleation score, 0.03 ± 0.88:
PGIPGPQLIYRDTILTLECM

Amyloid nucleation score, -0.46 ± 0.84:
NNCTSTRSMVVGEYRKKGAL

Amyloid nucleation score, 2.13 ± 0.063:
PGIIGTSNSFYQCVMWQVFG

Amyloid nucleation score, 2.2 ± 0.063:
NVYTPSIFACWSLCEGFFGI

Amyloid nucleation score, 1.23 ± 0.1:
NSHWWCSGFVSVVKIVAEFG

Amyloid nucleation score, 2.85 ± 0.07:
NSIAYMVWILALDCCNWGSQ

Amyloid nucleation score, 0.692 ± 0.2:
NLRHCGCSALGTMTDVNVRG

Amyloid nucleation score, 0.611 ± 0.24:
NVYELIDCGLTYQVYSYGSR

Amyloid nucleation score, 1.29 ± 0.13:
NYFGLWGCHTCITCYPVTLV

Amyloid nucleation score, -0.185 ± 0.82:
NWWIRGS

Amyloid nucleation score, 2.88 ± 0.06:
NVYVSSRVYISK
